Biological target: the molecule itself
Experiment: SEC-MALS; Superdex 200 HR10/300 in series with Wyatt Dawn8+ and Optilab T-rEX, 22°C; 100 µl, 100 µg protein; 150 mM NaCl with 50 mM HEPES or 50 mM Tris-Cl, pH 7.4; 0.75 ml/min

B1: Histag-FGF20 (recombinant human fibroblast growth factor 20) (natural protein)
chain: not shown
notes: Fibroblast growth factor 20, human; Made in E. coli, so not glycosylated; source: Escherichia coli, expressed and purified as described [37]
  stoichiometry N: 2

Reference: publication PMC4821243, “Heparin binding preference and structures in the fibroblast growth factor family parallel their evolutionary diversification” (Open Biology, 2016)
